Test results published in PMC10397247.

Legend:
Test in all cases: two-hybrid library CCNG1;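 note: natural log of median RNA to DNA barcode read ratio; higher means stronger binding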
4H72-bA = target: T1, 4H72-bA
T1 chain: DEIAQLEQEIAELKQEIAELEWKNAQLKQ

4H953-bA = target: T2, 4H953-bA
T2 chain: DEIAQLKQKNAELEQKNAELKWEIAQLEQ

O2-bA = target: T3, O2-bA
T3 chain: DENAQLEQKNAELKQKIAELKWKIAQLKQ

4H2729-bA = target: T4, 4H2729-bA
T4 chain: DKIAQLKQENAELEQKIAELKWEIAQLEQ

4H3855-bA = target: T5, 4H3855-bA
T5 chain: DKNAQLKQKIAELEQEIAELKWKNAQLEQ

4H3427-bA = target: T6, 4H3427-bA
T6 chain: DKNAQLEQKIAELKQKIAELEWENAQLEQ

4H883-bA = target: T7, 4H883-bA
T7 chain: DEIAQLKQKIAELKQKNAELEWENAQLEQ

4H2667-bA = target: T8, 4H2667-bA
T8 chain: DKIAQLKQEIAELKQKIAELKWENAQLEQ

4H2618-bA = target: T9, 4H2618-bA
T9 chain: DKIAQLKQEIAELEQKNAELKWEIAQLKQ

4H1828-bA = target: T10, 4H1828-bA
T10 chain: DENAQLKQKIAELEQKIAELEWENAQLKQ

4H1845-bA = target: T11, 4H1845-bA
T11 chain: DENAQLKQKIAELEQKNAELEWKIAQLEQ

4H3112-bA = target: T12, 4H3112-bA
T12 chain: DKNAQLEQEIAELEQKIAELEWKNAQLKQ

4H4001-bA = target: T13, 4H4001-bA
T13 chain: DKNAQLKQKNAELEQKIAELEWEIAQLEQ

4H908-bA = target: T14, 4H908-bA
T14 chain: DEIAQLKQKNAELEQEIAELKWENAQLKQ

4H607-bA = target: T15, 4H607-bA
T15 chain: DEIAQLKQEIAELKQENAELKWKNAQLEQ

4H568-bA = target: T16, 4H568-bA
T16 chain: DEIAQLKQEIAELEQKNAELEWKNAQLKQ

4H717-bA = target: T17, 4H717-bA
T17 chain: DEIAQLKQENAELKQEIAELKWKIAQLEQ

4H918-bA = target: T18, 4H918-bA
T18 chain: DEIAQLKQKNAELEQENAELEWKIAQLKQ

4H454-bA = target: T19, 4H454-bA
T19 chain: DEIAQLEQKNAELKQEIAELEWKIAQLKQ

4H797-bA = target: T20, 4H797-bA
T20 chain: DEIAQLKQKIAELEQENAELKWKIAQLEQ

4H2576-bA = target: T21, 4H2576-bA
T21 chain: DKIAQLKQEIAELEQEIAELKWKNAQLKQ

4H1446-bA = target: T22, 4H1446-bA
T22 chain: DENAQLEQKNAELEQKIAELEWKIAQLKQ

4H3782-bA = target: T23, 4H3782-bA
T23 chain: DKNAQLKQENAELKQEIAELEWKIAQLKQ

4H338-bA = target: T24, 4H338-bA
T24 chain: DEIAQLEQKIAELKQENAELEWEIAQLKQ

4H3354-bA = target: T25, 4H3354-bA
T25 chain: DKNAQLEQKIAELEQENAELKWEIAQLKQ

4H754-bA = target: T26, 4H754-bA
T26 chain: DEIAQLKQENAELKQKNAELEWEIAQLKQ

4H331-bA = target: T27, 4H331-bA
T27 chain: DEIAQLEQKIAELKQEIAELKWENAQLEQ

4H2442-bA = target: T28, 4H2442-bA
T28 chain: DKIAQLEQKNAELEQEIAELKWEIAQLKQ

4H953-bN = target: T29, 4H953-bN
T29 chain: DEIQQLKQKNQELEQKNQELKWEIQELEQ

4H1257-bA = target: T30, 4H1257-bA
T30 chain: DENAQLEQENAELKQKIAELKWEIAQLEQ

4H687-bA = target: T31, 4H687-bA
T31 chain: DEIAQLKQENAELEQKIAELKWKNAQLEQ

4H967-bA = target: T32, 4H967-bA
T32 chain: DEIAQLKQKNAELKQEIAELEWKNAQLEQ

4H3185-bA = target: T33, 4H3185-bA
T33 chain: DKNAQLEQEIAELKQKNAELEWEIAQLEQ

- interaction score (4H72-bA): -1.15
- interaction score (4H953-bA): -1.53
- interaction score (O2-bA): -1.33
- interaction score (4H2729-bA): -0.154
- interaction score (4H3855-bA): -0.705
- interaction score (4H3427-bA): -0.869
- interaction score (4H883-bA): -1.18
- interaction score (4H2667-bA): -0.847
- interaction score (4H2618-bA): -0.882
- interaction score (4H1828-bA): -0.782
- interaction score (4H1845-bA): -0.799
- interaction score (4H3112-bA): -0.693
- interaction score (4H4001-bA): -0.102
- interaction score (4H908-bA): -1.38
- interaction score (4H607-bA): -1.24
- interaction score (4H568-bA): -1.75
- interaction score (4H717-bA): -0.0683
- interaction score (4H918-bA): -0.431
- interaction score (4H454-bA): 1.77
- interaction score (4H797-bA): -0.933
- interaction score (4H2576-bA): 0.908
- interaction score (4H1446-bA): -0.55
- interaction score (4H3782-bA): 2.01
- interaction score (4H338-bA): -1.24
- interaction score (4H3354-bA): -0.884
- interaction score (4H754-bA): -1.15
- interaction score (4H331-bA): -0.712
- interaction score (4H2442-bA): -0.983
- interaction score (4H953-bN): -2.6
- interaction score (4H1257-bA): -0.0608
- interaction score (4H687-bA): -0.935
- interaction score (4H967-bA): -1.12
- interaction score (4H3185-bA): -1.37
Binder: DENAQLEQENAELKQKIAELKWEIAQLEQ [4H1257-bA]
